Results on one substance are retold here after publication doi:10.1101/2021.05.06.441046.

For this experiment, the target named is VFLIP_D614G spike with Foldon and purification tags enzymatically removed (SARS-CoV-2) (UniProt P0DTC2). Briefly: cryo-EM structure.

One may read the stoichiometry N as the number of molecules, sites or subunits per partner or assembly.

As to “HLX70 Fab (Fab from HLX70, a humanized pan-coronavirus mAb)”, the stoichiometry N was 3 Fab:spike.
